From patent publication US20190134153A1, “IMMUNOMODULATORY EFFECT OF INHALED KINASE INHIBITOR PEPTIDES IN LUNG” (MOERAE MATRIX, INC., priority 2017, published 2019)

Experiments:
Assay in all cases: Kinase Profiling Assay
Format in all cases: biochemical
Settings in all cases: 100 μM
ULK2(h) = target: T1, ULK2(h) (Homo sapiens, UniProt Q8IYT8)
T1 sequence (Q8IYT8 1-1036): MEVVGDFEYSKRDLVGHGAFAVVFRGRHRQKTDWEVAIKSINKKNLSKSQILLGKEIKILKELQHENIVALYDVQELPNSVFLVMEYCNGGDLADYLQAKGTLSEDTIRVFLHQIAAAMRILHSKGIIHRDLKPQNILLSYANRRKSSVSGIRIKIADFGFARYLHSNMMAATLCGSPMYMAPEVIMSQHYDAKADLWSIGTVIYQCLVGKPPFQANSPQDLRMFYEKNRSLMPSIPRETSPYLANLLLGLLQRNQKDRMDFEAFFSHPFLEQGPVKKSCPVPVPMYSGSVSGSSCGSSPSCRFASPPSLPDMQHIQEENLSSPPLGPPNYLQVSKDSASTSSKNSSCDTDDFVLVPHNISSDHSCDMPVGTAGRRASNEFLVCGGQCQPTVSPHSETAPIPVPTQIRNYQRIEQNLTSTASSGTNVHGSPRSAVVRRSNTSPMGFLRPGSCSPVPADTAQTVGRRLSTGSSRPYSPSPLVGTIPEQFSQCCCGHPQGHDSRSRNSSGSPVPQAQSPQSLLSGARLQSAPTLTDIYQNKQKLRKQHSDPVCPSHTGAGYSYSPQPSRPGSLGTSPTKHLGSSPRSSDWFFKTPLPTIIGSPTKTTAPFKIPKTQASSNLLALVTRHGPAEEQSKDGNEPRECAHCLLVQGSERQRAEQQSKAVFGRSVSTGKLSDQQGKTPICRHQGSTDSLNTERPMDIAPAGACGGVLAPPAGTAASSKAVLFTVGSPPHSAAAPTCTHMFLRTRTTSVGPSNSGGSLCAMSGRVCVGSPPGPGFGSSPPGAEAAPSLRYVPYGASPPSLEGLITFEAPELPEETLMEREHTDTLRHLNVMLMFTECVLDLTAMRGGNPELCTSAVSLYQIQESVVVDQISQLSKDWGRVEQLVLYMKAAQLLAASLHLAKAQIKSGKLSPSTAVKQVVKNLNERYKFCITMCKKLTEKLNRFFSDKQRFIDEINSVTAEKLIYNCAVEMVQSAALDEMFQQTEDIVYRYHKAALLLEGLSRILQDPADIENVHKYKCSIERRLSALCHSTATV

PhKγ2(h) = target: T2, PhKγ2(h) (Homo sapiens, UniProt P15735)
T2 sequence (P15735 1-406): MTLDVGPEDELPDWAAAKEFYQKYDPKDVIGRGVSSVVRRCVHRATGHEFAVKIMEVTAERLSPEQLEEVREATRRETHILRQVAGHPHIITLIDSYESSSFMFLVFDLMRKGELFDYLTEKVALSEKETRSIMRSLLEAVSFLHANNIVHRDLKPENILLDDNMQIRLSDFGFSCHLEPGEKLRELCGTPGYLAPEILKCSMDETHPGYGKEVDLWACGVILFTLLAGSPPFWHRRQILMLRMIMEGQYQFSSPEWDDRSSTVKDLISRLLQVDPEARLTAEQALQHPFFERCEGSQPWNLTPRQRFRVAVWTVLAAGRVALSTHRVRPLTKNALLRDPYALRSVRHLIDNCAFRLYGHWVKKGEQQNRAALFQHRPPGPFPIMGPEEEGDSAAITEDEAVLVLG

SAPK2b(h) = SAPK2b(h) (Homo sapiens, UniProt Q15759)
SAPK2b(h), sequence (Q15759 whole entry): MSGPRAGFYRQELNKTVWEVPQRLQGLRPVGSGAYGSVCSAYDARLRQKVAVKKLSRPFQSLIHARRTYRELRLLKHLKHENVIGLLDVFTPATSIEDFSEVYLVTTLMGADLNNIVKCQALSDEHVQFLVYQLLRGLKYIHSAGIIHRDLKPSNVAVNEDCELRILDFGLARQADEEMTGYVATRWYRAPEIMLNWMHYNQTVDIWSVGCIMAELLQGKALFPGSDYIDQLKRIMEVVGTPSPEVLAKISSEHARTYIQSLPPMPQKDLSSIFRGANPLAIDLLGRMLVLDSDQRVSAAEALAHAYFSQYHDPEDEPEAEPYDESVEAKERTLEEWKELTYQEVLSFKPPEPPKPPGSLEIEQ

DCAMKL2(h) = target: T3, DCAMKL2(h) (Homo sapiens, UniProt Q8N568)
T3 sequence (Q8N568 1-766): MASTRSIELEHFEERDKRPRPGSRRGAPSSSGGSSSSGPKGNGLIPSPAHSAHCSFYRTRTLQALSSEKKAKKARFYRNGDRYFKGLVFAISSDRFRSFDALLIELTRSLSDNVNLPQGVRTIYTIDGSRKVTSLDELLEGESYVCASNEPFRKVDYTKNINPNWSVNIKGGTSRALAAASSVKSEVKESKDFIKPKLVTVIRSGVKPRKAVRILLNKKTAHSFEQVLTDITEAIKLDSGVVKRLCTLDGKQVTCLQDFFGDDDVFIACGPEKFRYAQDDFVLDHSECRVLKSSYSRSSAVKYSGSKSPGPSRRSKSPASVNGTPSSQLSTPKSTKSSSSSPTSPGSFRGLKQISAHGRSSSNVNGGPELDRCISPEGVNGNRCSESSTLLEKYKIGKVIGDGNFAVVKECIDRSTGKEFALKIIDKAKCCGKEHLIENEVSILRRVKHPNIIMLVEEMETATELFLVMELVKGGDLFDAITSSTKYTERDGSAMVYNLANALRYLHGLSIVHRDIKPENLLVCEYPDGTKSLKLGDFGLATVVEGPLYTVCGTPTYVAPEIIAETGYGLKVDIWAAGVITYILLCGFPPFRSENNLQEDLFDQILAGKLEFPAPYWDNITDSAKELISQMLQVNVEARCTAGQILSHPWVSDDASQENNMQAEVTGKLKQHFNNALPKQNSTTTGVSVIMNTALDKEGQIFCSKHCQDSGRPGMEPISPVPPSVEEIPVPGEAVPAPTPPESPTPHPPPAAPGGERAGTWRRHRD

Abl (Q252H) (h) = Abl (Q252H) (h) (Homo sapiens, UniProt P00519, Q252H)
VRK2(h) = VRK2(h) (Homo sapiens, UniProt Q86Y07)
VRK2(h), sequence (Q86Y07 whole entry): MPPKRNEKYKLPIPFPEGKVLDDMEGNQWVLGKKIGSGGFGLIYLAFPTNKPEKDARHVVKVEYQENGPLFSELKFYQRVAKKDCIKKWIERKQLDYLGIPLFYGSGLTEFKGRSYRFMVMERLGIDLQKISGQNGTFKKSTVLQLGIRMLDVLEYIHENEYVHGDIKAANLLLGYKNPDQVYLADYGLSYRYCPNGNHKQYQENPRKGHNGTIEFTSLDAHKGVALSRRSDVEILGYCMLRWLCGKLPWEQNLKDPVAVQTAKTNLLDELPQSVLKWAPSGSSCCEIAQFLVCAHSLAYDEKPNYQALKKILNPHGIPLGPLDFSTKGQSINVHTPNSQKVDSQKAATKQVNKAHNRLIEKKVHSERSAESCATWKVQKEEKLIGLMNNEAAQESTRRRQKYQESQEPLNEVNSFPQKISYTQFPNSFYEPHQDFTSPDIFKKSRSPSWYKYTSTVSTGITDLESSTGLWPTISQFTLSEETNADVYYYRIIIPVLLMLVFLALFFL

| Sequence | % activity (ULK2(h)) [%] | % activity (PhKγ2(h)) [%] | % activity (SAPK2b(h)) [%] | % activity (DCAMKL2(h)) [%] | % activity (Abl (Q252H) (h)) [%] | % activity (VRK2(h)) [%] |
| --- | --- | --- | --- | --- | --- | --- |
| YARAAARQARAKALNRQLGVA [MMI-0200] | 132 | 86 | 95 | 131 |  |  |
| KAFAKLAARLYRKALARQLGVAA [MMI-0400] | 131 | 38 | 82 | 70 | 98 | 185 |
| HRRIKAWLKKIKALARQLGVAA [MMI-0500] | 124 | 16 | 42 | 56 | 40 | 169 |
| FAKLAARLYRKALARQLGVAA [MMI-0300] | 122 | 46 | 81 | 81 | 82 | 161 |
